Where “and” joins values, the source holds several entries; their conditions need not be identical. Equal values may be shown once.
B1: 1H6 VHH-hFc fusion protein (Fc fusion)
VHH: AVQLVDSGGGSVQAGGSLNLSCVASGTTLRNGCMAWFRQVPGKEREVVAIIIRATSYTDYADSVKGRFTISQDNAKNTVYLQMKSLTPEDTATYYCAATLYRVNCAKREFDKWGQGTQVTVSS
notes: also called 1H6 VHH-Fc; source: Expi293 cells, transfected, purified (protein A column)
B2: NCI-CoV-8A2 VHH-hFc fusion protein (Fc fusion)
VHH: AVQLVDSGGGSVQAGGSLRLSCAASGYTYSICTMGWYRQAPGEGLEWVSGINADGSNTHYTDSVKGRFTISRDNAKKTLYLQMNSLKPEDTAIYYCAAHGTYDKYAPCGGFAGTYTYWGQGTQVTVSS
notes: also called 8A2 VHH-Fc; source: Expi293 cells, transfected, purified (protein A column)
B3: 8A4 VHH-hFc fusion protein (Fc fusion)
VHH: EVQLVESGGGLVQPGESLRLSCEASGFTFSSVYMSWVRQAPGKGLEWISTIHPAGGSTYYADSMKDRFTISRDNAKNTLYLQMNSLKSEDTALYYCIIEALSGYRGPGTQVTVSS
notes: also called 8A4 VHH-Fc; source: Expi293 cells, transfected, purified (protein A column)
B4: NCI-CoV-7A3 VHH-hFc fusion protein (Fc fusion)
VHH: QVQLVESGGGSVQPGGSLRLSCVVSGYTSSSRYMGWFRQVPGKGLEWVSGIKRDGTNTYYADSVKGRFTISQDNAKNTVYLQMNSLKPEDTAMYYCAAGSWYNQWGYSMDYWGKGTQVTVSS
notes: also called 7A3 VHH-Fc; source: Expi293 cells, transfected, purified (protein A column)

Experiments:
[1] = target: T1, SARS-CoV-2 (Wuhan-Hu-1) spike receptor-binding domain, His-tagged (SARS-CoV-2, UniProt P0DTC2 319-541); test: BLI; details: both partners purified
[2] = target: T1, SARS-CoV-2 (Wuhan-Hu-1) spike …; test: BLI; details: both partners purified; remark: listed apart in the source

Binder	Kd [1]	Kd [2] [nM]
B1	37 nM and 42 nM	
B2	0.26 nM and 0.13 nM	0.26
B3	0.14 nM and 0.18 nM	0.16
B4	0.19 nM and 0.2 nM	0.2

Source: paper PMC9170159 (Proceedings of the National Academy of Sciences of the …, 2022)
